Measured values as given in paper PMC10071816 (bioRxiv, 2023).

Columns and labels:
[1] = molecular target: human chaperonin TCP-1 ring complex (TRiC/CCT) (human) (UniProt P17987); assay: cryo-EM structure
[2] = molecular target: CCT1, subunit of human TRiC (human, UniProt P17987 1-556); assay: cross-linking
[3] = molecular target: T1, CCT2, subunit of human TRiC (human, UniProt P78371 1-535); assay: cross-linking
T1 sequence: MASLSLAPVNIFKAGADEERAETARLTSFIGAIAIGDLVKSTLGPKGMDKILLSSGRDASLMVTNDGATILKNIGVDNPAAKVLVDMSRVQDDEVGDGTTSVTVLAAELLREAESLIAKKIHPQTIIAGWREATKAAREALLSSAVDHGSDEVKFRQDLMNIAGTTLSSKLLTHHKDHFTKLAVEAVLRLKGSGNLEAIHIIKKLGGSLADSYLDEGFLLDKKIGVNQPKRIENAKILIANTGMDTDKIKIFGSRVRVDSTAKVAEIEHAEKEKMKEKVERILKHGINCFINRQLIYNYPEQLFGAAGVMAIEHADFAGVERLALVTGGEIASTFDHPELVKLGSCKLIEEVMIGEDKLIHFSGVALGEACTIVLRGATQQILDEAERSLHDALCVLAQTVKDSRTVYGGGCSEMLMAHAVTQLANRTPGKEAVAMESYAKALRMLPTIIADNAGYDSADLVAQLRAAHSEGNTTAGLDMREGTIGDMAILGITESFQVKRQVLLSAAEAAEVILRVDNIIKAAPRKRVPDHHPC

[4] = molecular target: CCT5, subunit of human TRiC (human, UniProt P48643 1-541); assay: cryo-EM structure
CCT5, subunit of human TRiC, sequence (P48643 whole entry): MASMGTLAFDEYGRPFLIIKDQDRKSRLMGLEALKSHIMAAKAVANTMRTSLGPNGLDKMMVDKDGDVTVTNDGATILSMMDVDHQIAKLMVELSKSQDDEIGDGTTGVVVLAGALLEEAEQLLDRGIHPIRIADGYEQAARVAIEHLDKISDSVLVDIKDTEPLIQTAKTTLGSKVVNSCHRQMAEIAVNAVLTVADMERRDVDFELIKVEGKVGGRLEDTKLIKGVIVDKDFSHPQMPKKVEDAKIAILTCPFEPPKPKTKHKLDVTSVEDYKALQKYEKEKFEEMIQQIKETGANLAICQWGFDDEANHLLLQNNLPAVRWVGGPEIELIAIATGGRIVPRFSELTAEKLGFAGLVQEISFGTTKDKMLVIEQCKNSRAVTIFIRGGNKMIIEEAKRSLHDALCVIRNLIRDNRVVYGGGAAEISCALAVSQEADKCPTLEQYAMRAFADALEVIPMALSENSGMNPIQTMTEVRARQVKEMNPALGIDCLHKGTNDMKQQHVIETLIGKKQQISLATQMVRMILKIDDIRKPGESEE

CCT1, subunit of human TRiC, sequence (P17987 whole entry): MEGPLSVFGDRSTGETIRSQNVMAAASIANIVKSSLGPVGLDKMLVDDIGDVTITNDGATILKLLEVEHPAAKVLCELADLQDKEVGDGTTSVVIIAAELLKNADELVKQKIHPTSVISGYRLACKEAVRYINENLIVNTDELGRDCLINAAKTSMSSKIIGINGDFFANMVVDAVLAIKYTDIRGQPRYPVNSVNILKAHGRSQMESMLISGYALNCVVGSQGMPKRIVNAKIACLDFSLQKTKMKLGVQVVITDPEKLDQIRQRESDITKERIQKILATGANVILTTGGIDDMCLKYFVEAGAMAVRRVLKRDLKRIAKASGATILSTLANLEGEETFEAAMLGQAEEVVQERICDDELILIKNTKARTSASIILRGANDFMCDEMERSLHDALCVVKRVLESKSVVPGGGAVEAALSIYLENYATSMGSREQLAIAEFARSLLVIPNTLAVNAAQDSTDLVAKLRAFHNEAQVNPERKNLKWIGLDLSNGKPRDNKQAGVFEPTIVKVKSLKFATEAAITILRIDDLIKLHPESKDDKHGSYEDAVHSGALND

B1: phosducin-like protein PhLP2A, full length (natural protein)
chain: MQDPNADTEWNDILRKKGILPPKESLKELEEEAEEEQRILQQSVVKTYEDMTLEELEDHEDEFNEEDERAIEMYRRRRLAEWKATKLKNKFGEVLEISGKDYVQEVTKAGEGLWVILHLYKQGIPLCALINQHLSGLARKFPDVKFIKAISTTCIPNYPDRNLPTIFVYLEGDIKAQFIGPLVFGGMNLTRDELEWKLSESGAIMTDLEENPKKPIEDVLLSSVRRSVLMKRDSDSEGD
- percent of particles (3D classification) [1]: 22.9%
- percent of particles with PhLP2A in both chambers [1]: 9.5%
- percent of particles with PhLP2A in one chamber [1]: 14%
- binding result [2]: binds
- binding result [3]: binds
- binding result [4]: binds
